The binders below were run against SARS-COV-2 RBD (SARS-COV-2, UniProt P0DTC2 319-539) (assay: ELISA, RBD coated).

| Binder | EC50 [ng/mL] |
| --- | --- |
| C534 (antibody, V domains shown) VH: QVQLVQSGAEVKKPGSSVRVSCKASGGTFSRNVISWVRQAPGQGLEWMGGIIPMFATANYAQKFQGRVTITADESSSTAYMELSSLRSEDTAVYYCAREDFILVSAPIRENSYYYYGMDVWGQGTTVTVSS VL: EIVLTQSPGTLSLSPGERATLSCRASQSVSSNYLAWYQQKPGQAPRLLIYDASSRATGIPDRFSGSGSGTDFTLTISRLEPEDFAVYYCQQYGGSPRTFGQGTKVEIK | 4.85 |
| C521 (antibody, V domains shown) VH: EVQLVESGGGLVRPGGSLTLSCVASGFTVGSNFMSWVRQAPGKGLEWVSLIYNSGGTHYADSVKGRFTISRDRSKNTLYLQMNSLRAEDTAIYYCANHGYYYYMDVWGKGTTVTVS VL: QSALTQPASVSGSPGQSITISCTGTGSDIGAYNYVSWHQHHPGKAPKLIIYDVSNRPSGVSNRFSGSKSGNTASLTISGLQAEDEADYYCTSYTNTTTPWVFGGGTKVTVL | 6.9 |
| C547 (antibody, V domains shown) VH: QVQLVESGGGVVQPGRSLRLSCAASGFTFSSYGMHWVRQAPGKGLEWVAVISYDGSNKYYADSVKGRFTISRDNSKNTLYLQMNSLRAEDTAVYYCAKDTPGGDDILTGWGLYGMDVWGQGTTVTVSS VL: not shown | 1.78 |
| C543 (antibody, V domains shown) VH: QVQLVESGGGVVQPGRSLRLSCTASGFTFSTAGMHWVRQAPGKGLEWVAVISYDGSNKDYADSVKGRFTISRDNSKSTLYLQMNSLRPEDTAVYYCAKDTPGGDDIMTGWGLYGMDVWGQGTTVTVSS VL: DIQMTQSPSSLSASVGDRVTITCRASQSISSYLNWYHQKPGKAPKLLIYAAISLQSGVPSRFSGSGFGTDFTLTISSLQPEDFAIYYCQQSYSTPWTFGQGTKVEIK | 1.28 |
| C514 (antibody, V domains shown) VH: EVQLVESGGGLVQPGGSLRLSCAASEFIVTRNYMSWVRQAPGKGLEWVSLIYPGGSTFYADSVKGRFTISRDNSKNTLFLHMNSLRAEDTAVYYCARDLAGRLDYWGQGTLVTVSS VL: DIQMTQSPSSLSASVGDRVTITCQASQDINNFLNWYQQKPGKAPKLLIYDASNLETGVPSRFSGSGSGTDFTFTISSLQPEDIAIYYCQQYDSLSRLTFGGGTKVEIK | 0.82 |
| C094 (antibody, V domains shown) VH: QVQLQESGPGLVKPSETLSLTCNVSGVSISTDYWSWIRQPPGKGLEWIGYIYYSGNTKDYNPSLKSRVTISVDTSKNQFSLMLSSVTAADTAVYYCARHYDILTSLSWFDPWGQGTLVTVSS VL: QSVLTQPPSVSAAPGQKVTISCSITNSNLGNIYVSWYQQLPGTAPKLLIYGNNKRPSGIPDRFSGSKSGTSATLGITGLQTGDEAHYYCGTWDSSLSANWVFGGGTKLTVL | 1.67 |
| C046 (antibody, V domains shown) VH: EVQLVESGGGLAQPGRSLRLSCAASGFTFDDYAMHWVRQAPGKGLEWVSGINWNSGSLGYADSVKGRFTISRGIAKNSLYLQMNSLRPEDTAFYYCAKAGVRGIAAAGPDLNFDYWGQGTLVTVSS VL: EIVLTQSPATLSLSPGERATLSCRASQSVSSYLAWYQQKPGQAPRLLIYDASNRATGIPARFIGSGSGTDFTLTISSLEPEDFAVYYCQQRITFGQGTRLEIK | 4.02 |
| C538 (antibody, V domains shown) VH: QLQLQESGPGLVKPSETLSLTCTVSGGSISSSSYYWAWIRQPPGKGLEWIGNIYYSGITYYSPSLKSRVTISVDTSKNQFSLKLRSVTAADTAVYYCARQHRYGSGSSELLWGQGTLVTVSS VL: QSALTQPPSASGSPGQSVTISCTGTSSDVGSYNYVSWYQQHPGKAPKLMIYEVTKRPSGVPDRFSGSKSGNTASLTVSGLQADDEADYYCSSYAGSSNLIFGGGTKLTVL | 3.94 |
| C513 (antibody, V domains shown) VH: EVQLLESGGGLVQPGGSLRLSCVASGFSFSTYAMSWVRQAPGQGLEWVSTITGTSIGTYYADSVKGRFTISRDNSKNTVFLQMKSLRAEDAAVYYCANHPLASGDEYYYYYMDVWGKGTTVTVSS VL: EIVLTQSPDTLSLSPGERATLSCRASQSVHSKQLAWYQQKPGQAPRLLIYGASSRATGIPDRFSGSGSGTDFTLTISRLEPEDFAVYYCQQYGSIRALTFGGGTKVEIK | 1.31 |
| C539 (antibody, V domains shown) VH: EVQLVESGGGLVQPGRSLRLSCAASGFTFDDYALHWVRQAPGKGLEWVSGISWNGDSIGYADSVKGRFTISRDNAKNSLSLQMNSLTAEDTALYYCAKGVEYSSSSNCDYWGQGTLVTVSS VL: DIQMTQSPSSVSASVGDRVTITCRASQDISSWLAWYQQKPGKAPKLLISLASGLQSGVPSRFSGSGSETDFTLTISSLQPEDFATYYCQQTNSFPLTFGGGTKVEI | 1.3 |
| C533 (antibody, V domains shown) VH: EVQLVESGGSLVKPGGSLRLSCVASGLTFNHAWMSWVRQAPGKGLEWVGRIKSKIDGGTTDYAAPVKGRFTISRDDSKSTQYLQMNSLKTEDTAVYYCTTDCFWRLGGTTCYEHDAFDVWGQGTMVTVSS VL: DIQMTQSPSSLSASVGDRVTITCRASQAIATFLNWYQQKPGKAPKLLIYAASSLQSGVPSRFSGSGSGTDFTLTISNLQPEDFATYYCQQSYNSLHFGGGTKVEIK | 1.61 |
| C537 (antibody, V domains shown) VH: QLQLQESGPGLVKPSETLSLTCTVSGGAISSRNYHWGWIRQPPGKGLEWIGSIYYSGSTYYSPSLKSRVTISVDTSKNQFSLRLSSVTAADTAVYYCARLETSGWYTEDVFDIWGQGTMVTVSS VL: DIQMTQSPSSLSASVGDRVTITCRASQSISSYLNWYQQKPGKAPKLLIYAASSLQSGVPSRFSGSGSGTDFTLTISSLLPEDFATYYCQRSYSAMYTFGQGTKLEIK | 41.9 |
| C080 (antibody, V domains shown) VH: EVQLVQSGAEVKKPGESLNISCKASGYSFTIYWIAWVRQLPGKGLEWMGIIYPGDSDTRYSPSFQGQVTISADKSISTAYLQWRSLKASDSAVYYCARGVAVDWYFDLWGRGTLVTVSS VL: QSVLTQPPSVSGAPGQRVTISCAGSSSNIGAGFDVYWYQQLPGTAPKLLIYGNNNRPSGVPDRFSGSKSGTSASLAITGLQAEDEADYYCQSSGSVLSDLYVFGTGTKVTVL | 1.97 |
| C542 (antibody, V domains shown) VH: EVQLVESGGGLVQPGGSLRLSCAASGLTVTSNYMSWVRQAPGRGLEWVSLIYPGGTTYYADSVKGRFTVSRDNSKNTLYLQMDSLRAEDTGVYYCARETLGRGGDCWGQGTLVTVSS VL: DIQMTQSPSSLSASVGDRVTITCQASQDISNFLNWYQQKPGKAPKLLIYDASNLETGVPSRFSGSRSGTDFTFTISSLQPDDIATYYCQQYDNLPRSFGQGTKLEIK | 1.07 |

The binders below were run against T1, SARS-CoV-2 receptor-binding domain (WT RBD; S protein residues 319-539) (SARS-CoV-2, UniProt P0DTC2 319-539) (assay: BLI (Octet Red), IgG on protein A biosensor, WT RBD in solution, 1:1 fit).
T1 construct: also called SARS-COV-2 RBD

| Binder | Kd [nM] |
| --- | --- |
| C841 (antibody, V domains shown) VH: EVQLVESGGGLVQPGGSLRLSCAASGFTFSIFSMNWVRQAPGKGLEWISYISSSSGSRHYADSVKGRFTISRDNAKNSLYLQMNNLRDEDTAMYYCAREAHDGALTGYGDYLNWFDPWGQGVLVTVSS VL: SYELTQPPSVSVAPGKTARIPCGGDSVGSKSVHWYQQKSGQAPVLVIHSDSDRPSGIPERFSGSNSGNTATLTITGVAAGDEADYYCHVWDTIGDRFYWVFGGGTKLTVL | 1.64 |
| C840 (antibody, V domains shown) VH: QVQLVESGGGVVQPGRSLRLSCEASGFTFTAYAMHWLRQAPGKGLEWVAVILNDGSNKLYADSVKGRFTVSRDNSKNMLYLQVNSLRVDDTAVYYCARDGSVDTLMVTWFDYWGQGTLVTVSS VL: DIQMTQSPSSLSASVGDRVTITCRASQSVNNYLNWYQQKPGQAPKLLIYAASSLQSGVPLRFSGSGSGTDFALTITSLHTEDFATYYCQQSYNTPPWTFGPGTKVEIK | 5.56 |

Source: US20240218057A1 (ROCKEFELLER UNIVERSITY, published 2024)
